As usually defined, the Km is the concentration of substrate that gives half-maximal velocity.

Substrate in this series: NCCc1ccc(O)c(O)c1
As to the kind of experiment: cells, lysate or membranes. The conditions noted are these: sodium inward-facing conformation favors substrates.

B1: human dopamine transporter (hDAT) (Homo sapiens) (protein)
chain: MSKSKCSVGLMSSVVAPAKEPNAVGPKEVELILVKEQNGVQLTSSTLTNPRQSPVEAQDRETWGKKIDFLLSVIGFAVDLANVWRFPYLCYKNGGGAFLVPYLLFMVIAGMPLFYMELALGQFNREGAAGVWKICPILKGVGFTVILISLYVGFFYNVIIAWALHYLFSSFTTELPWIHCNNSWNSPNCSDAHPGDSSGDSSGLNDTFGTTPAAEYFERGVLHLHQSHGIDDLGPPRWQLTACLVLVIVLLYFSLWKGVKTSGKVVWITATMPYVVLTALLLRGVTLPGAIDGIRAYLSVDFYRLCEASVWIDAATQVCFSLGVGFGVLIAFSSYNKFTNNCYRDAIVTTSINSLTSFSSGFVVFSFLGYMAQKHSVPIGDVAKDGPGLIFIIYPEAIATLPLSSAWAVVFFIMLLTLGIDSAMGGMESVITGLIDEFQLLHRHRELFTLFIVLATFLLSLFCVTNGGIYVFTLLDHFAAGTSILFGVLIEAIGVAWFYGVGQFSDDIQQMTGQRPSLYWRLCWKLVSPCFLLFVVVVSIVTFRPPHYGAYIFPDWANALGWVIATSSMAMVPIYAAYKFCSLPGSFREKLAYAIAPEKDRELVDRGEVRQFTLRHWLKV
Take B1: the Km was determined as 2.31 µM.

Source of the values: publication PMC9872521.
